# Laboratory results: patent US20210220404A1 (Novartis, published 2021)
# No end group written: not given here.
# B1: duCD19.1 anti-CD19 CAR (other)
# chain: EIVMTQSPATLSLSPGERATLSCRASQDISKYLNWYQQKPGQAPRLLIYHTSRLHSGIPARFSGSGSGTDYTLTISSLQPEDFAVYFCQQGNTLPYTFGQGTKLEIKGGGGSGGGGSGGGGSQVQLQESGPGLVKPSETLSLTCTVSGVSLPDYGVSWIRQPPGKGLEWIGVIWGSETTYYQSSLKSRVTISKDNSKNQVSLKLSSVTAADTAVYYCAKHYYYGGSYAMDYWGQGTLVTVSSTTTPAPRPPTPAPTIASQPLSLRPEACRPAAGGAVHTRGLDFACDIYIWAPLAGTCGVLLLSLVITLYCKRGRKKLLYIFKQPFMRPVQTTQEEDGCSCRFPEEEEGGCELRVKFSRSADAPAYQQGQNQLYNELNLGRREEYDVLDKRRGRDPEMGGKPRRKNPQEGLYNELQKDKMAEAYSEIGMKGERRRGKGHDGLYQGLSTATKDTYDALHMQALPPR
# notes: CAR on transduced primary human T cells; also called CTL119; Mono-duCD19.1
# B2: B61-10 BCMA CAR (other)
# chain: QVQLVESGGGVVQPGRSLRLSCAASGFTFSSYGMHWVRQAPGKGLEWVAVISYKGSNKYYADSVKGRFTISRDNSKNTLYLQMNSLRAEDTAVYYCGGSGYALHDDYYGLDVWGQGTLVTVSSGGGGSGGGGSGGGGSGGGGSQSALTQPASVSGSPGQSITISCTGTSSDVGGYNYVSWYQQHPGKAPKLMIYEVSNRLRGVSNRFSGSKSGNTASLTISGLQAEDEADYYCSSYTSSSTLYVFGSGTKVTVLTTTPAPRPPTPAPTIASQPLSLRPEACRPAAGGAVHTRGLDFACDIYIWAPLAGTCGVLLLSLVITLYCKRGRKKLLYIFKQPFMRPVQTTQEEDGCSCRFPEEEEGGCELRVKFSRSADAPAYQQGQNQLYNELNLGRREEYDVLDKRRGRDPEMGGKPRRKNPQEGLYNELQKDKMAEAYSEIGMKGERRRGKGHDGLYQGLSTATKDTYDALHMQALPPR
# notes: CAR on transduced JNL cells or primary human T cells
# B3: B61-02 BCMA CAR (other)
# chain: QVQLVESGGGVVQPGRSLRLSCAASGFTFSSYGMHWVRQAPGKGLEWVAVISYKGSNKYYADSVKGRFTISRDNSKNTLYLQMNSLRAEDTAVYYCGGSGYALHDDYYGLDVWGQGTLVTVSSGGGGSGGGGSGGGGSGGGGSQSALTQPASVSGSPGQSITISCTGTSSDVGGYNYVSWYQQHPGKAPKLMIYEVSNRLRGVSNRFSGSKSGNTASLTISGLQAEDEADYYCSSYTSSSALYVFGSGTKVTVLTTTPAPRPPTPAPTIASQPLSLRPEACRPAAGGAVHTRGLDFACDIYIWAPLAGTCGVLLLSLVITLYCKRGRKKLLYIFKQPFMRPVQTTQEEDGCSCRFPEEEEGGCELRVKFSRSADAPAYQQGQNQLYNELNLGRREEYDVLDKRRGRDPEMGGKPRRKNPQEGLYNELQKDKMAEAYSEIGMKGERRRGKGHDGLYQGLSTATKDTYDALHMQALPPR
# notes: as for B2
# B4: Hy52 BCMA CAR (other)
# chain: EVQLVESGGGLVKPGGSLRLSCAASGFTFSSFRMNWVRQAPGKGLEWVSSISSSSSYIYYADSVKGRFTISRDNAKNSLYLQMNSLRAEDTAVYYCARWLSYYGMDVWGQGTTVTVSSGGGGSGGGGSGGGGSGGGGSDIVMTQTPLSLPVTPGEPASISCRSSQSLLDSDDGNTYLDWYLQKPGQSPQLLIYTLSFRASGVPDRFSGSGSGTDFTLKIRRVEAEDVGVYYCMQRIGFPITFGQGTRLEIKTTTPAPRPPTPAPTIASQPLSLRPEACRPAAGGAVHTRGLDFACDIYIWAPLAGTCGVLLLSLVITLYCKRGRKKLLYIFKQPFMRPVQTTQEEDGCSCRFPEEEEGGCELRVKFSRSADAPAYQQGQNQLYNELNLGRREEYDVLDKRRGRDPEMGGKPRRKNPQEGLYNELQKDKMAEAYSEIGMKGERRRGKGHDGLYQGLSTATKDTYDALHMQALPPR
# notes: as for B2
# B5: PI61 BCMA CAR (other)
# chain: QVQLQESGGGVVQPGRSLRLSCAASGFTFSSYGMHWVRQAPGKGLEWVAVISYDGSNKYYADSVKGRFTISRDNSKNTLYLQMNSLRAEDTAVYYCGGSGYALHDDYYGLDVWGQGTLVTVSSGGGGSGGGGSGGGGSQSALTQPASVSGSPGQSITISCTGTSSDVGGYNYVSWYQQHPGKAPKLMIYDVSNRPSGVSNRFSGSKSGNTASLTISGLQAEDEADYYCSSYTSSSTLYVFGSGTKVTVLTTTPAPRPPTPAPTIASQPLSLRPEACRPAAGGAVHTRGLDFACDIYIWAPLAGTCGVLLLSLVITLYCKRGRKKLLYIFKQPFMRPVQTTQEEDGCSCRFPEEEEGGCELRVKFSRSADAPAYQQGQNQLYNELNLGRREEYDVLDKRRGRDPEMGGKPRRKNPQEGLYNELQKDKMAEAYSEIGMKGERRRGKGHDGLYQGLSTATKDTYDALHMQALPPR
# notes: CAR on transduced JNL cells or primary human T cells; also called P161; Mono PI61
# B6: Hy03 BCMA CAR (other)
# chain: EVQLVESGGGLVQPGGSLRLSCAASGFTFSGFWMSWVRQAPGKGLEWVANIKQDGSEKYYVDSVRGRFTISRDNAKNSLYLQMNSLRAEDTAVYYCARALDYYGMDVWGQGTTVTVSSGGGGSGGGGSGGGGSGGGGSDIVMTQTPLSLPVTPGEPASISCRSSQSLLDSDDGNTYLDWYLQKPGQSPRLLIYTLSYRASGVPDRFSGSGSGTDFTLKISRVEAEDVGLYYCTQRLEFPSITFGQGTRLEIKTTTPAPRPPTPAPTIASQPLSLRPEACRPAAGGAVHTRGLDFACDIYIWAPLAGTCGVLLLSLVITLYCKRGRKKLLYIFKQPFMRPVQTTQEEDGCSCRFPEEEEGGCELRVKFSRSADAPAYQQGQNQLYNELNLGRREEYDVLDKRRGRDPEMGGKPRRKNPQEGLYNELQKDKMAEAYSEIGMKGERRRGKGHDGLYQGLSTATKDTYDALHMQALPPR
# notes: as for B2
# B7: human recombinant (r)BCMA_Fc-AF647 (Fc fusion)
# chain: MLQMAGQCSQNEYFDSLLHACIPCQLRCSSNTPPLTCQRYCNASVTNSVKGTNA
# modifications: cysteine pairing not given here; also: Alexa Fluor 647 label, Fc fusion tag, unspecified
# notes: In-house flow cytometry staining reagent; not shown: Fc part of an in-house reagent
# Key:
# [1] = biological target: B7; test: flow cytometry, T cells with construct 244, day 8, rBCMA-Fc AF647 stain
# Description: BCMA-CD19 dual or monoBCMA or monoCD19 CART cells were generated using human primary T cells (CD4+ and CD8+ lymphocytes) obtained by negative selection or positive selection via Prodigy upon processing blood from healthy apheresed donors. Before transduction, the T cells were activated using CD3/CD28 beads (Dynabeads® Human T-Expander CD3/CD28, Thermo Fisher Scientific) at a ratio of 1:3 (T cell to bead) in T cell medium (RPMI1640, 10% heat-inactivated fetal calf serum (FCS), 2 mM L-glutamine, 1× Penicillin/Streptomycin, 100 μM non-essential amino acids, 1 mM Sodium Pyruvate, 10 mM Hepes, and 55 μM 2-mercaptoethanol). The cells were cultured at a density of 0.5×10⁶/mL medium per well in a 24-well plate at 37° C., 5% CO₂. After 24 hours, when T cells were blasting, they were transduced with viruses at a multiplicity of infection (MOI) of 5 based on the upstream CAR titer. T cells began to divide in a logarithmic growth pattern, which was monitored by measuring the cell counts per mL, and T cells were diluted in fresh medium every two days and de-beaded and harvested for further analyses on day 8 or beyond depending on the size of the cells. Aliquots of T cells were stained to measure CAR expression by flow cytometry on day 7 or 8 on a FACS Fortessa (BD).
# [2] = biological target: B7; test: flow cytometry; rBCMA_Fc-AF647 staining of CAR-transduced primary human T cells, day 5 of culture (reported by the filing as CAR expression)
# Description: (§1) BCMA CAR T cells were generated by starting with blood from healthy apheresed donors whose T cells (CD4+ and CD8+ lymphocytes) were obtained by negative selection for CD3+ T cells. These cells were activated by the addition of CD3/CD28 beads (Dynabeads® Human T-Expander CD3/CD28, Thermo Fisher Scientific) at a ratio of 1:3 (T cell to bead) in T cell medium (RPMI1640, 10% heat-inactivated fetal calf serum (FCS), 2 mM L-glutamine, 1× Penicillin/Streptomycin, 100 μM non-essential amino acids, 1 mM Sodium Pyruvate, 10 mM Hepes, and 55 μM 2-mercaptoethanol). T cells were cultured at 0.5×10⁶ T cells in 1 mL medium per well of a 24-well plate at 37° C., 5% CO₂. After 24 hours, when T cells were blasting, T cells were transduced with BCMA CAR virus at a multiplicity of infection (MOI) of 5. […] Aliquots of T cells were stained to measure CAR expression by flow cytometry at day 5 and 9 on a FACS Fortessa (BD). All BCMA CAR T cells were produced under research grade (i.e., not clinical grade) manufacturing conditions.
# (§2) The BCMA-CAR surface expression and its stability was assessed by measuring CAR % and MFI (mean fluorescence intensity) at day 5 and day 9 using flow cytometry analyses of rBCMA_Fc-AF647 stained cells (FIG. 2 and Table 27).
# [3] = biological target: B7; test: flow cytometry; rBCMA_Fc-AF647 staining of CAR-transduced primary human T cells, day 9 of culture (reported by the filing as CAR expression)
# Description: as §1, §2
# [4] = biological target: T1, anti-BCMA CAR arm of duCD19.1-P2A-duBCMA.4 (construct 234); test: flow cytometry, T cells with construct 234, day 8, MFI of rBCMA-Fc stain
# T1 construct: also called c234; duCD19.1-duBCMA.4
# 245 = biological target: T2, 245; test: flow cytometry, T cells with construct 245, day 8, MFI of rBCMA-Fc stain
# T2 construct: also called c245; Mono-duBCMA.4
Binder,binding result [1],CAR MFI on T cells (Day 5) [2] [MFI],CAR MFI on T cells (Day 9) [3] [MFI],binding result [4],binding result 245
B1,no binding,–,–,–,–
B2,–,27300,3290,–,–
B3,–,29100,3470,–,–
B4,–,33700,2860,–,–
B5,–,24400,2100,–,–
B6,–,9460,929,–,–
B7,–,–,–,binds,binds
